Substrate in data set [1]: CC1=CC[C@@H]2C[C@H]1C2(C)C
As to the kind of experiment: cells, lysate or membranes. Conditions: Sf9 microsomes + MPB CPR, 1 mM NADPH, 50 mM potassium phosphate pH 7.4, 30 °C, 1 h.

Substrate in data set [2]: CC1=CC[C@H]2C[C@@H]1C2(C)C
Description: cells, lysate or membranes. As to conditions: Sf9 microsomes + MPB CPR, 1 mM NADPH, 50 mM potassium phosphate pH 7.4, 30 °C, 1 h.

In general, Km refers to the concentration of substrate that gives half-maximal velocity. The term Vmax denotes the rate approached at saturating substrate. One may read the kcat as the maximal rate divided by the concentration of active sites. As a reminder, the kcat/Km is the turnover number divided by the Michaelis constant.

B1: CYP6DE1 (Dendroctonus ponderosae) (protein)
chain: MALIIAVGLLLSIILLYCVYSKWKFQHWTRKGVPQLNPRLFFGDTLPLVRGQALKDFHLGLYQKFKSTGAKCVGIYNAHMPELVPIDIILLKDIMVKDYSYFSSHGVFYHEKNVLTSHLFNIEGQSWKERRTKLTPVFTSAKMKQMFDTVASKSPGLVRLVGLSADANKPADIKEILSRFTTDVISGAAFGLECKSLYEPDNMFRAIGKEAFEPNALKLYIEYLFPRQLLGSIGYQTFSSRIVSYFSKVVNETIQYREKNNVQRNDFMQLMLQLKQHGSLVKEDGSVDVKKTETQITDREILSESFLMFLAGHETSSSTSTFALFALSQNQDIQEKVRNEINEVLERHNGKLGYDALMEMEYLDKVIRETLRKYPTVPVIPRRCTKDYQIKNTNTVIDKGTRLYIPVIGVHLDPEYYPDPERFDPERFSPENKAKRPDIAWMPFGEGPRQCLGMRFGLLQSKVALASLLPTFRFTINKAMKPPYIADAGTLVYMFKQDVLLDATRIN
B1: in data set [1], the Km was 292 ± 1 µM, the Vmax was determined as 0.42 µM/min, the kcat came to 0.17 s⁻¹ and the kcat/Km was 576 M⁻¹ s⁻¹. Besides, in data set [2], the Km worked out at 160 ± 1 µM, the Vmax turned out to be 0.96 µM/min, the kcat worked out at 0.37 s⁻¹ and the kcat/Km is 2320 M⁻¹ s⁻¹.

The values above are taken from article PMC6365528.
